For one assay, the system named is A549. The assay can be described thus: MTT cytotoxicity test, A549 (human lung cancer). The assay is classed as cell-based. The text has this: (§1) MTT assay is a colorimetric assay used to measure proliferation, viability and cytotoxicity of cells. It consists in decomposition of a yellow tetrazolium salt MTT (4,5-dimethyl-2-thiazolyl)-2,5-diphenyltetrazolium bromide) to the water-insoluble purple dye formazan by mitochondrial enzyme succinate-tetrazolium reductase 1. MTT reduction occurs only in living cells. Data analysis consists in determining IC50 concentration of the protein (in ng/ml), at which the 50% reduction in the number of cells occurs in the population treated compared to control cells. Results were analyzed using GraphPad Prism 5.0 software. The test was performed according to the literature descriptions (Cells, J E, (1998). Cell Biology, a Laboratory Handbook, second edition, Academic Press, San Diego; Yang, Y., Koh, L W, Tsai, J H., (2004); Involvement of viral and chemical factors with oral cancer in Taiwan, Jpn J Clin Oncol, 34 (4), 176-183). Cell culture medium was diluted to a defined density (10^4-10^5 cells per 100 μl). Then 100 μl of appropriately diluted cell suspension was applied to a 96-well plate in triplicates. Thus prepared cells were incubated for 24 h at 37° C. in 5% or 10% CO2, depending on the medium used, and then to the cells (in 100 μl of medium) further 100 μl of the medium containing various concentrations of tested proteins were added. In the case of combination hTRAIL114-281 and p21WAF effector protein, 100 μl of the medium containing mixture of hTRAIL114-281 and p21WAF effector protein in molar ratio 1:1 was added. After incubation of the cells with tested proteins over the period of next 72 hours, which is equivalent to 3-4 times of cell division, the medium with the test protein was added with […] of MTT working solution [5 mg/ml], and incubation was continued for 3 h at 37° C. in 5% CO2. Then the medium with MTT solution was removed, and formazan crystals were dissolved by adding 100 μl of DMSO. After stirring, the absorbance was measured at 570 nm (reference filter 690 nm).
(§2) The results of in vitro cytotoxicity tests are summarized as IC50 values (ng/ml), which corresponds to the protein concentration at which the cytotoxic effect of fusion proteins is observed at the level of 50% with respect to control cells treated only with solvent. Each experiment represents the average value of at least two independent experiments performed in triplicates. As a criterion of lack of activity of protein preparations the IC50 limit of 2000 ng/ml was adopted.

A further assay relates to SK-MES-1. The experiment in a line: MTT cytotoxicity test, SK-MES-1 (human lung cancer). In kind it is cell-based. As to conditions: for SK-MES-1 mean (IC50): Table 4, mean/SD part.
Source text: as §1, §2

In a further assay the test system is MCF10A. The assay can be described thus: MTT cytotoxicity test, MCF10A (mammary epithelial cells). In kind it is cell-based. To be noted: continuous incubation over 72 h, test MTT.
Source text: as §1, §2

The test system of assay [1] is TRAIL sensitive cell lines. The assay can be described thus: in vitro cytotoxicity tests, TRAIL sensitive cell lines. The assay is classed as cell-based. As to conditions: continuous incubation over 72 h, test MTT; versus rhTRAIL 95-281 (cell line not given).
Source text: as §1, with “nm). […]” for “nm).”

Another assay relates to MES-SA. The assay can be described thus: MTT cytotoxicity test, MES-SA (human uterine sarcoma). The assay is classed as cell-based. To be noted: continuous incubation over 72 h, test MTT.
Source text: as §1, §2

A further assay relates to MES-SA/Dx5. The assay can be described thus: MTT cytotoxicity test, MES-SA/Dx5 (multidrug-resistant human uterine sarcoma). In kind it is cell-based. As to conditions: for MES-SA/Dx5 mean (IC50): Table 4, mean/SD part.
Source text: as §1, §2
Cells selected for this test included tumor cell lines that are naturally resistant to TRAIL protein (the criterion of natural resistance to TRAIL: IC50 for TRAIL protein >2000), as well as tumor cell lines sensitive to TRAIL protein and resistant to doxorubicin line MES-SA/DX5 as a cancer line resistant to conventional anticancer medicaments.

The test system of a further assay is HT-29. The experiment in a line: MTT cytotoxicity test, HT-29 (human colorectal cancer). In kind it is cell-based. To be noted: Table 4, mean/SD part; listed as Ex. 17^a. The text has this:
(§3) MTT assay is a colorimetric assay used to measure proliferation, viability and cytotoxicity of cells. It consists in decomposition of a yellow tetrazolium salt MTT (4,5-dimethyl-2-thiazolyl)-2,5-diphenyltetrazolium bromide) to the water-insoluble purple dye formazan by mitochondrial enzyme succinate-tetrazolium reductase 1. MTT reduction occurs only in living cells. Data analysis consists in determining IC50 concentration of the protein (in ng/ml), at which the 50% reduction in the number of cells occurs in the population treated compared to control cells. Results were analyzed using GraphPad Prism 5.0 software. The test was performed according to the literature descriptions (Cells, J E, (1998). Cell Biology, a Laboratory Handbook, second edition, Academic Press, San Diego; Yang, Y., Koh, L W, Tsai, J H., (2004); Involvement of viral and chemical factors with oral cancer in Taiwan, Jpn J Clin Oncol, 34 (4), 176-183). Cell culture medium was diluted to a defined density (10^4-10^5 cells per 100 μl). Then 100 μl of appropriately diluted cell suspension was applied to a 96-well plate in triplicates. […] After stirring, the absorbance was measured at 570 nm (reference filter 690 nm). […]

The next assay concerns UM-UC-3. The experiment in a line: MTT cytotoxicity test, UM-UC-3 (human bladder cancer). In kind it is cell-based. As to conditions: Table 4, mean/SD part.
Source text: as §3

Assay [2] concerns human colon cancer HCT116. The experiment in a line: HCT116 colon cancer xenograft in Crl:CD1-Foxn1^nu 1 mice. In kind it is in vivo. To be noted: HCT116, Crl:CD1-Foxn1^nu 1 mice, 10 mg/kg i.v., 10 daily applications with a two-day break after the first 5, 27th day. How it is done: (§4) Antitumor activity of protein preparations was tested in a mouse model of human colon cancer HCT116, human colon cancer Colo205, human colon cancer model SW620, human liver cancer model HepG2, and human lung cancer models NCI-H460 and NCI-H460-Luc2.
(§5) The HCT116 (in mice Crl:CD1-Foxn1^nu 1), Colo205, NCI-H460, NCI-H460-Luc2 cells were maintained in RPMI 1640 medium (Hyclone, Logan, Utah, USA) mixed in the ratio of 1:1 with Opti-MEM (Invitrogen, Cat.22600-134) supplemented with 10% fetal calf serum and 2 mM glutamine. On the day of mice grafting, the cells were detached from the support by washing the cells with trypsin (Invitrogen), then the cells were centrifuged at 1300 rpm, 4° C., 8 min., suspended in HBSS buffer (Hanks medium), counted and diluted to the concentration of 25×10^6 cells/ml.
(§6) Examination of antitumor activity of proteins of the invention was conducted on 7-9 week-old CD-nude (Crl:CD1-Foxn1^nu 1) or 4-6 week-old Crl:SHO-Prkdc^scidHr^hr mice obtained from Charles River Germany. Mice were kept under specific pathogen-free conditions with free access to food and demineralised water (ad libitum). All experiments on animals were carried in accordance with the guidelines: “Interdisciplinary Principles and Guidelines for the Use of Animals in Research. […]

In the next assay the test system is NCI-H460. To be noted: Table 4, mean/SD part.
The next assay relates to NIH: OVCAR-3. The experiment in a line: MTT cytotoxicity test, NIH: OVCAR-3 (human ovarian cancer). In kind it is cell-based. As to conditions: Table 4, mean/SD part.
Source text: as §3

For assay [3], the system named is human lung cancer NCI-H460-Luc2. The experiment in a line: NCI-H460-Luc2 lung cancer xenograft in Crl:CD1-Foxn1nu 1 mice. In kind it is in vivo. As to conditions: NCI-H460-Luc2, Crl:CD1-Foxn1nu 1 mice, 20 mg/kg i.v. six times every second day, 30th day. How it is done:
as §4, §5, §6

[4] abbreviates: continuous incubation over 72 h, test MTT.

Values joined by “and” are separate entries in the source; they are usually repeats but may differ in a detail not shown here. Equal entries are not always repeated.

B1: Ex. 14: fusion protein: 13-amino acid fragment of MEK-1 protein with antennapedia sequence at C-terminus of TRAIL121-281, MMP and uPA sites (protein)
chain: RVAAHITGTRGRSNTLSSPNSKNEKALGRKINSWESSRSGHSFLSNLHLRNGELVIHEKGFYYIYSQTYFRFQEEIKENTKNDKQMVQYIYKYTSYPDPILLMKSARNSCWSKDAEYGLYSIYQGGIFELKENDRIFVSVTNEHLIDMDHEASFFGAFLVGGSPLGLAGRVVRDRQIKIWFQNRRMKWKKGMPKKKPTPIQLN
modifications: synthesized, a fusion protein comprising: a fragment of TRAIL protein, a fragment of MEK-1 protein - an inhibitor of ERK activation, cleavage sites recognized by uPA and MMP, an antennapedia transporting domain and a glycine- cysteine linker.
B1: in the assay on A549 (setting [4]), the “A549 IC50” value amounted to 1.767 µg/mL. Moreover, in the assay on HCT-116 (setting [4]), the “HCT116 IC50” value is 0.1235 µg/mL. Further, the “SK-MES-1 IC50” value with SK-MES-1 (setting [4]) came out at 0.02848 µg/mL. The “MCF10A IC50” value in the assay with MCF10A is above 2 µg/mL. For the same molecule, the IC50 in [1] came out at 0.049 µg/mL. In addition, in the assay with MES-SA, the “MES-SA IC50” value was found to be 0.2312 µg/mL. Besides, the “MES-SA/Dx5 IC50” value in the assay on MES-SA/Dx5 (setting [4]) turned out to be 0.01373 µg/mL.

B2: Ex. 17: fusion protein: 13-amino acid fragment of tubulin with 6 arginine residues at N-terminus of TRAIL121-281, uPA and MMP sites (protein)
chain: FRRKAFLHWYTGRRRRRRRRVVRPLGLAGRVAAHITGTRGRSNTLSSPNSKNEKALGRKINSWESSRSGHSFLSNLHLRNGELVIHEKGFYYIYSQTYFRFQEEIKENTKNDKQMVQYIYKYTSYPDPILLMKSARNSCWSKDAEYGLYSIYQGGIFELKENDRIFVSVTNEHLIDMDHEASFFGAFLVG
modifications: synthesized, a fusion protein comprising: a fragment of TRAIL protein, a fragment of tubulin peptide, cleavage sites recognized by urokinase uPA and metalloprotease MMP and an arginine transporting domain.
notes: fusion protein: 13-amino acid fragment of tubulin with 6 arginine residues at N-terminus of TRAIL121-281, uPA and MMP sites
Consider B2, for which the “A549 mean (IC50)” value in the assay on A549 (Table 4, mean/SD part) was found to be 2.887 µg/mL. In addition, the “HT 29 mean (IC50)” value in the assay with HT-29 is 6.808 µg/mL and 7.818 µg/mL. Also, in the assay on SK-MES-1, the “SK-MES-1 mean (IC50)” value worked out at 0.08119 µg/mL. Besides, in the assay on MES-SA/Dx5 (listed as Ex. 17^a), the “MES-SA/Dx5 mean (IC50)” value was 0.07596 µg/mL and 0.04426 µg/mL.

B3: Ex. 2^a: fusion protein: 8-amino acid fragment of human fetoprotein (SEQ. No. 28) at N-terminus of TRAIL114-281, uPA cleavage site (protein)
chain: EMTPVNPGRVVRERGPQRVAAHITGTRGRSNTLSSPNSKNEKALGRKINSWESSRSGHSFLSNLHLRNGELVIHEKGFYYIYSQTYFRFQEEIKENTKNDKQMVQYIYKYTSYPDPILLMKSARNSCWSKDAEYGLYSIYQGGIFELKENDRIFVSVTNEHLIDMDHEASFFGAFLVG
modifications: synthesized, a fusion protein comprising: a fragment of TRAIL protein, a fragment of human fetoprotein and a cleavage site recognized by urokinase uPA.
B3: the “HCT116 mean (IC50)” value in the assay with HCT-116 (Table 4, mean/SD part) is 0.06 µg/mL and 0.06087 µg/mL. In addition, the “UM-UC-3 mean (IC50)” value with UM-UC-3 was found to be 0.03506 µg/mL. Also, the “SK-MES-1 mean (IC50)” value in the assay on SK-MES-1 worked out at 0.01888 µg/mL. The results for the “tumor growth inhibition (TGI) relative to the control” value in [2] and in assay [3] were 71.2% and 81.3%, respectively. The “NCI-H460 mean (IC50)” value in the assay with NCI-H460 is 4.246 µg/mL. The “OVCAR-3 mean (IC50)” value in the assay with NIH: OVCAR-3 worked out at 0.0261 µg/mL. In the assay with MES-SA/Dx5, the “MES-SA/Dx5 mean (IC50)” value is 0.01896 µg/mL.

The record behind these values is patent publication US20140031283A1, “ANTICANCER FUSION PROTEIN” (ADAMED SP. Z O.O., priority 2011, published 2014).
